In PMC10221436, “Reagentless Electrochemical Detection of Tumor Biomarker Based on Stable Confinement of Electrochemical Probe in Bipolar Silica Nanochannel Film”:

Experiments:
[1] = biological target: T1, alpha fetoprotein (AFP) (UniProt P02771 19-609); experiment: electrochemical aptasensor (MB peak current ratio); 10 ng/mL AFP; 0.01 M PBS (sodium phosphate) pH 7.4; BSA-blocked electrode; CEA incubation temperature and time not in the material; conditions: protein: commercial
T1 sequence: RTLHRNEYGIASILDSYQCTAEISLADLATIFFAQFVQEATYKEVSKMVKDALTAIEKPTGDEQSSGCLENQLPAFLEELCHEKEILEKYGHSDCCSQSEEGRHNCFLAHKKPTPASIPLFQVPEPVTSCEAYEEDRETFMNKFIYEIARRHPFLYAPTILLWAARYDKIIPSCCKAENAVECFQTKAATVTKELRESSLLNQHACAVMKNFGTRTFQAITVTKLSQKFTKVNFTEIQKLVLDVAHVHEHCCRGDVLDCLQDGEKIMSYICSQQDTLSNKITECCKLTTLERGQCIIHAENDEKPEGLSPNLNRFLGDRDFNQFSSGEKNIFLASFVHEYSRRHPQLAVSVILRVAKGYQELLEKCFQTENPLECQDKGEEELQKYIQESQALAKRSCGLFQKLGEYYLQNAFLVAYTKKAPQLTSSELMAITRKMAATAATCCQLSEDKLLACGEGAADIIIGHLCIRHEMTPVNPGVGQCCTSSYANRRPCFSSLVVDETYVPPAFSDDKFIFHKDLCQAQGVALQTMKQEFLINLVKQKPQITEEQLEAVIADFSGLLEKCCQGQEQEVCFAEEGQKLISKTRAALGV

[2] = biological target: T2, C-reactive protein (CRP) (UniProt P02741 19-224); experiment: electrochemical aptasensor (MB peak current ratio); 10 ng/mL CRP; 0.01 M PBS (sodium phosphate) pH 7.4; BSA-blocked electrode; CEA incubation temperature and time not in the material; conditions: protein: commercial; chain copies: 5
T2 sequence: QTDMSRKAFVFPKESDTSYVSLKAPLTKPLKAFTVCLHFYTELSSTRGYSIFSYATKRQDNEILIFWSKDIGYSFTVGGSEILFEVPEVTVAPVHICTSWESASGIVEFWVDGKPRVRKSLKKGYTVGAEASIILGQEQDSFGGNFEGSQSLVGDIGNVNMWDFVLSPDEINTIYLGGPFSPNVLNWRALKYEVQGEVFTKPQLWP

[3] = biological target: carcinoembryonic antigen (CEA) (UniProt P06731 35-685); experiment: electrochemical aptasensor (DPV, CV, EIS); 1 pg/mL-1 ug/mL CEA; LOD 0.22 pg/mL (not a Kd); 0.01 M PBS (sodium phosphate) pH 7.4; BSA-blocked electrode; CEA incubation temperature and time not in the material; conditions: protein: commercial
Chain of carcinoembryonic antigen (CEA) (P06731 35-685): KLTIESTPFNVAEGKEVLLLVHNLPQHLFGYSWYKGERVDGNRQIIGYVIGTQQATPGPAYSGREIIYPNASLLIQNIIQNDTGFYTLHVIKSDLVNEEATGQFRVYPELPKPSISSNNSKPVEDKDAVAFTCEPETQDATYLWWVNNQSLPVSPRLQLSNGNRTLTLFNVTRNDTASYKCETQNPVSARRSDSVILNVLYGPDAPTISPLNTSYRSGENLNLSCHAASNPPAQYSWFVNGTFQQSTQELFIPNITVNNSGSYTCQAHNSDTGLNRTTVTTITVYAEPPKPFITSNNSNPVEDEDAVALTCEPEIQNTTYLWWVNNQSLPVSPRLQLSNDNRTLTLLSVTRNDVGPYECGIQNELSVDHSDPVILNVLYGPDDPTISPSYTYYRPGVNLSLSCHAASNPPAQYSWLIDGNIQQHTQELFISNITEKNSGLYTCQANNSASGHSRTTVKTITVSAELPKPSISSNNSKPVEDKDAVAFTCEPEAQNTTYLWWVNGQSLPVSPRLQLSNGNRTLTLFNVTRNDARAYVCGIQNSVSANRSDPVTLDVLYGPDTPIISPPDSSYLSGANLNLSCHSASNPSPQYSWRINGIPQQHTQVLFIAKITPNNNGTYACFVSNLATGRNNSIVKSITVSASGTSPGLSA

[4] = biological target: cancer antigen 15-3 (CA15-3) (UniProt P15941 24-1097); experiment: electrochemical aptasensor (MB peak current ratio); 10 uU/mL CA15-3; 0.01 M PBS (sodium phosphate) pH 7.4; BSA-blocked electrode; CEA incubation temperature and time not in the material; conditions: protein: commercial
Chain of cancer antigen 15-3 (CA15-3) (P15941 24-1097): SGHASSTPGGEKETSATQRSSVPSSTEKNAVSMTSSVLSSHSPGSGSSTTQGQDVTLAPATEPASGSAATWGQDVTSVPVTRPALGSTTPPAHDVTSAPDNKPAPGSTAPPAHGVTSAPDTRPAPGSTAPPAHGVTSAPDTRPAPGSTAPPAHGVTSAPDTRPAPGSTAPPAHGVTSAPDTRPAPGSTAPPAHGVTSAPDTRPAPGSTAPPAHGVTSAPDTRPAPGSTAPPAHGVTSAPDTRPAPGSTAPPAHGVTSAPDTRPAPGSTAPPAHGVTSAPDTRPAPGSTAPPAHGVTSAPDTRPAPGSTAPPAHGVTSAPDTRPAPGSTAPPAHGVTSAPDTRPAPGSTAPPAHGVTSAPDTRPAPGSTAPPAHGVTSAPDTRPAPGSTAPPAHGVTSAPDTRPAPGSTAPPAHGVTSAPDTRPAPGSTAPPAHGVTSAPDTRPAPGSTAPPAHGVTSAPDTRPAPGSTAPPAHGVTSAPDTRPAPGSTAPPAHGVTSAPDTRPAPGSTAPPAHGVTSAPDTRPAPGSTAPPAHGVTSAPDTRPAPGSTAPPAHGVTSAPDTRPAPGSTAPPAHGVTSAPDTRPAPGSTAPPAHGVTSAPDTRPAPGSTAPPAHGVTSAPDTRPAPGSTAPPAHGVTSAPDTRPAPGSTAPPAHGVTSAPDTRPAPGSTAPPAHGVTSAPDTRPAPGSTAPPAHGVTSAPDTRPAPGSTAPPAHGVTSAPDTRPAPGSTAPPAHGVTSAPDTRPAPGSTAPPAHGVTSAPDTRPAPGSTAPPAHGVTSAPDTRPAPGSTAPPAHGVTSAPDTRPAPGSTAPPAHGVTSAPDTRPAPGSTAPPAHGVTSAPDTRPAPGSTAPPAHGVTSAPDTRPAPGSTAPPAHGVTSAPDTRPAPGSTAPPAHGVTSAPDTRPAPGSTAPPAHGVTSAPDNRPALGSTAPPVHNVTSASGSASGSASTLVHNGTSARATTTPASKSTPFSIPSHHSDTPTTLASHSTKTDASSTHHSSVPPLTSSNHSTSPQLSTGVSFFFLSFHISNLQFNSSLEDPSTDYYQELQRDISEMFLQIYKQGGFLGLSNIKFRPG

[5] = biological target: prostate-specific antigen (PSA) (UniProt P07288 25-261); experiment: electrochemical aptasensor (MB peak current ratio); 10 ng/mL PSA; 0.01 M PBS (sodium phosphate) pH 7.4; BSA-blocked electrode; CEA incubation temperature and time not in the material; conditions: protein: commercial
Chain of prostate-specific antigen (PSA) (P07288 25-261): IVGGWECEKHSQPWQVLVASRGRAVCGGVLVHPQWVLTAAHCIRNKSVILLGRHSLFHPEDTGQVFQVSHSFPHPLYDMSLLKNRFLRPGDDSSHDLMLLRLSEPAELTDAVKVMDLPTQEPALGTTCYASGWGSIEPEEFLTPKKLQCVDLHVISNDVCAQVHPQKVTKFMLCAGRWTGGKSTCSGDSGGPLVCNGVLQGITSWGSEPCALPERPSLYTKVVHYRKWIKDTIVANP

ATACAGCTTCAATT (ssDNA, 3'-NH2, immobilized via glutaraldehyde on amino-silica film) [CEA aptamer]: no binding [1]; no binding [2]; binds [3]. ATACAGCTTCAATT (ssDNA, 3'-NH2, immobilized via glutaraldehyde on amino-silica film) [CEA aptamer]: no binding [4]; no binding [5].
